Source: paper PMC5790014, “Type IX secretion system PorM and gliding machinery GldM form arches spanning the periplasmic space” (Nature Communications, 2018)

Columns and labels:
[1] = biological target: the molecule itself; experiment: crystal structure; GldMp; sitting-drop vapor diffusion at 293K; 0.1 M Hepes pH 7-8, 26-46% (w/v) PEG 600; 2 Å
[2] = biological target: T1, PorMp315 (PorM periplasmic fragment, domains D3 and D4 in the crystal) (Porphyromonas gingivalis, UniProt B2RLE8); experiment: crystal structure; PorMp315/nb130, 1/1 complex at 10 mg/mL; 0.2 M ammonium citrate tribasic pH 7.0, 20% (w/v) PEG3350; 2.1 Å; conditions: both partners purified
T1 construct: PorM, Porphyromonas gingivalis, GI 188595218; cloned as residues 224-516, domain D2 was cleaved by a protease during crystallization, the structure spans residues 315-516; Construct cloned as 224-516 (pLIC03); the crystallised species is 315-516

[3] = biological target: the molecule itself; experiment: crystal structure; PorMp224; 0.02 M sodium acetate pH 4.8-5.8, 0.2 M zinc acetate, 15-25% (w/v) PEG3350; 2.85 Å
[4] = biological target: the molecule itself; experiment: crystal structure; PorMp315/nb130, 1/1 complex at 10 mg/mL; 0.2 M ammonium citrate tribasic pH 7.0, 20% (w/v) PEG3350; 2.1 Å
[5] = biological target: T2, PorMpNt (N-terminal domain D1 of the PorM periplasmic domain) (Porphyromonas gingivalis (sequence …)); experiment: crystal structure; PorMNt/nb01, 1/1 complex at 10 mg/mL; 0.1 M Hepes pH 7.5, 0.2 M NaCl, 25% (w/v) PEG3350; 2.4 Å; conditions: both partners purified
T2 construct: PorM, Porphyromonas gingivalis, GI 188595218, N-terminal domain D1; residues 30-212 by the results, residues 44-217 by the methods; the first helix (residues 30-69) is missing in the crystal, probably cleaved during crystallization; also called PorMNt

B1: GldM periplasmic domain (GldMp) (domain or fragment, Flavobacterium johnsoniae, UniProt Q5EGM3 36-513, looked up)
chain: FGLMNEKFEAANTSSVTTNESLLTSLDQKAAEAKGEFAKAAETAHKVQAASKEFYDYIGTLKTQAVKGFEVDKETGKMPYEAMDRGDNIDDWFTGDGYTKKGNEIIAKIEKYKSDIKAALGTDKKYAGIISEVEKKFDVSDVKNKEGIKEKYLAYHFKGFPAIASAAKLSAWQNDVKKTEADVYNSALGKAAVAAASYSNYQAIVVLDKNAYFQGEKVTGKVVLGRYDENTKPTSFQGPGQIVNGQAVISLTAGGVGEQDINGQFTFLEDGKNIPLKFSGKYVVVPRPNSATISADKMNVVYRGVVNPISVSFAGVDANKIVASAPGLSSAGKPGKYNMSPGQGTEATISVTGTLPNGDKVTDKKTFRIKGIPGPTGTIRGEMGVVKGPKSNLEIATIGAKLLDFDFEVGLDVVGFNMKIAGQPTVVVTGNKMNAQCKSVLARAGKGDQVTISEIKTKLVGAGSYLLPRTAPVIYEIQ
notes: GldM, Flavobacterium johnsoniae (ATCC17061), GI 58531935, periplasmic domain, residues 36-513; Cloned into pLIC03 (a pET28a+ derivative); A SeMet derivative was used for phasing
For B1, the “stoichiometry N” value [1] was 2.

B2: nanobody nb130 (VHH)
VHH: QVQLVESGGGLVQAGGSLRLSCAASGRTFSSYVMGWFRQAPGKEREFVTAISWSGGSIHYADSVKGRFTISRDNAKNTVYLQMNSLKPEDTAVYTCVAGFAGYGSFTSRSARDSDKYDYWGQGTKVTVSS
notes: llama nanobody raised against PorMp; source: E. coli WK6, periplasmic fraction, purified (Ni-NTA, Superdex 75)
B2: binds [2].

B3: PorMp224 (PorM periplasmic fragment, residues 224-516) (domain or fragment)
chain: RVNSITAQVIPQSQIVMSGDTYKANIVLSSVDTTQRPDVFVNGKLLSPENMGLFTATAGAPGTYPVKGYIEMMGNDGVKIRRDFESEYFVTEPMASVAPTMMNVLYAGIDNPINIAVPGVAQQNVSATINNGTLTRRGNLWIARPTKVGSEAIISVTAQSGGRTIQMAKTTLRVRALPDPLPYIEYKDVQGNTKRFKGGRLGKREILAAGGIKAALDDDLLEVNYTVVKFQLVFYDSMGNSIPEVSDGASFSERQKRQIQNLGKGKRFYVTEVIARGPDGIERKIPAIEVIVN
notes: PorM, Porphyromonas gingivalis, GI 188595218, tryptic fragment of the periplasmic domain, residues 224-516 (domains D2-D4); source: trypsin cleavage of PorMp (made in Rosetta E. coli cells), fragment purified
B3: binds [3].

B4: PorMp315 (PorM periplasmic fragment, domains D3 and D4 in the crystal) (domain or fragment, Porphyromonas gingivalis, UniProt B2RLE8 315-516, looked up)
chain: EPMASVAPTMMNVLYAGIDNPINIAVPGVAQQNVSATINNGTLTRRGNLWIARPTKVGSEAIISVTAQSGGRTIQMAKTTLRVRALPDPLPYIEYKDVQGNTKRFKGGRLGKREILAAGGIKAALDDDLLEVNYTVVKFQLVFYDSMGNSIPEVSDGASFSERQKRQIQNLGKGKRFYVTEVIARGPDGIERKIPAIEVIVN
notes: PorM, Porphyromonas gingivalis, GI 188595218; cloned as residues 224-516, domain D2 was cleaved by a protease during crystallization, the structure spans residues 315-516; Construct cloned as 224-516 (pLIC03); the crystallised species is 315-516
B4: binds [4].

B5: nanobody nb01 (VHH)
VHH: DVQLVESGGGLVQAGGSLRVSCAASGRTFSSYSMGWFRQAPGKEREFVAAISRSDNSTYYADSVKGRFTISRDSAKNTVYLQMNSLKPEDTAVYYCAATPYGSRYYLRELREYDYWGQGTQVTVSS
notes: as for B2
B5: binds [5].
